Results as given in US20190322724A1 (RESEARCH FOUNDATION FOR THE STATE UNIVERSITY OF NEW YORK, published 2019).

Biological target: T1, endogenous secreted MMP-2 in conditioned media of SYF and SYF+c-Src mouse embryonic fibroblast cells (mouse (endogenous protein of mouse …, UniProt P33434 30-662, limits assumed))
T1 construct: also called endogenous secreted MMP-2 in SYF CM
Assay: Ni-NTA pulldown from SYF CM, immunoblot
Experimental: Pulldown and co-pulldown experiments were performed from CM and immunoblots were followed. […] Data represent three independent experiments.
Equal amounts of isolated cell extract proteins were incubated with HisPur Ni-NTA Resin (ThermoScientific) for 2 hours at 4° C. Immunopellets were washed 4 times with fresh lysis buffer (20 mM HEPES pH 7.0, 100 mM NaCl, 1 mM MgCl2, 0.1% NP40, protease inhibitor cocktail (Roche) and PhosSTOP (Roche)). […] Pulldowns were also performed using conditioned media concentrated ˜10× using Amicon Ultra 10K centrifugal filters (Millipore) according to the manufacturer's protocol. HiPur Ni-NTA Resin was used to pulldown His6-tagged TIMP-2 from concentrated conditioned media. Briefly, HisPur Ni-NTA Resin was washed 3 times by vortexing resin with 0.1% NP40 lysis buffer and pipetting off supernatant. Concentrated conditioned media was combined with washed HisPur Ni-NTA Resin, and placed on rotator at 4° C. for 1 hour. Wash step was repeated 4 times with 1% NP40 buffer+150 mM NaCl to reduce non-specific binding of proteins to resin. 5× protein loading buffer was added to resin and boiled for 5 minutes.

T1 sequence (P33434 30-662 limits assumed): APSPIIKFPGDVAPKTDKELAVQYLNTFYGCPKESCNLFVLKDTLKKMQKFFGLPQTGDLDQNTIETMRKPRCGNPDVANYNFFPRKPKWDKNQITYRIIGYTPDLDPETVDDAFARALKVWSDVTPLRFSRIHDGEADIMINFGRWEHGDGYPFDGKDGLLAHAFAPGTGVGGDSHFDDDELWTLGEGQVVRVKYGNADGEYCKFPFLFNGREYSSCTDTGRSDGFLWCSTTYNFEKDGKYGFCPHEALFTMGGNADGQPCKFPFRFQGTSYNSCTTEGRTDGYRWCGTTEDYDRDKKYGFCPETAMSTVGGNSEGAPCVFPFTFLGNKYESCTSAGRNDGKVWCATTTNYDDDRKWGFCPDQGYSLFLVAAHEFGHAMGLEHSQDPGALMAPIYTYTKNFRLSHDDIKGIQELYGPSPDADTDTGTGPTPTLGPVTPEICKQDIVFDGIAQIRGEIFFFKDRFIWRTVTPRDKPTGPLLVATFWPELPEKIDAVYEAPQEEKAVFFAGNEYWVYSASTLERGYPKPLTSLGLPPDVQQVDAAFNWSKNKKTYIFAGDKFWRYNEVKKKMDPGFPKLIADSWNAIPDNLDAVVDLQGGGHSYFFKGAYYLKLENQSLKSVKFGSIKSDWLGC

binding result: no binding
B1: TIMP-2 Y62F/Y90F/Y165F-His6 (other)
chain: CSCSPVHPQQAFCNADVVIRAKAVSEKEVDSGNDIFGNPIKRIQYEIKQIKMFKGPEKDIEFIFTAPSSAVCGVSLDVGGKKEYLIAGKAEGDGKMHITLCDFIVPWDTLSTTQKKSLNHRYQMGCECKITRCPMIPCFISSPDECLWMDWVTEKNINGHQAKFFACIKRSDGSCAWYRGAAPPKQEFLDIEDPHHHHHH
notes: also called TF; triple F mutant
